Biological target: chicken MyD88, full length, Flag-tagged (Flag-MyD88), expressed in HEK293T cells (chicken) (UniProt A5HNF6)
Assay: co-IP; HEK293T cells co-transfected with the indicated plasmids (2 ug/1x10^6 cells), harvested at 30 h; NP-40 lysis buffer; immunoprecipitated by the Flag tag, blotted for HA and Flag tags

Chain of UniProt A5HNF6 (A5HNF6 whole entry): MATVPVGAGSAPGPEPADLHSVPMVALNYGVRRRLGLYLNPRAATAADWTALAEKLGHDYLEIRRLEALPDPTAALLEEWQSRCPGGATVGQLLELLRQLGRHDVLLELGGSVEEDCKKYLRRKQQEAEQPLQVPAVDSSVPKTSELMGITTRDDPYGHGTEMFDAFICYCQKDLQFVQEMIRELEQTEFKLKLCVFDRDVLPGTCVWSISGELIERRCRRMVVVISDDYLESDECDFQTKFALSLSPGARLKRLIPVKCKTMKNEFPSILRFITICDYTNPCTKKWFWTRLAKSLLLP

## VP2-HT: IBDV VP2 with the double mutation Q253H/A284T (VP2 of the rescued HT strain), expressed in HEK293T cells (natural protein)
  fold decrease of interaction compared to VP2: 2.9 fold

— article PMC11957393
